The supplement of paper PMC9112550, “Optimization of the antimicrobial peptide Bac7 by deep mutational scanning” (BMC Biology, 2022)

System: Escherichia coli TOP10
Experiment: shrunken log2 fold change of peptide-encoding DNA abundance (4.5 h post-induction vs induction); higher = less antimicrobial activity (less host growth inhibition)
Settings: time post-induction: 4.5 h; library: site-saturation at positions 5, 18, 19, 20
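Further: peptides expressed intracellularly from a pBAD plasmid library in pooled LB shake-flask culture, induced with 0.3% L-arabinose, DNA abundance read by NGS, three biological replicates, DESeq2 with apeglm shrinkage.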

Sequence: RRIRARPPRLPRPRPRPHYMPRP
- shrunken log2 fold change: -0.381

Sequence: RRIRARPPRLPRPRPRPIAMPRP
- shrunken log2 fold change: 0.207

Sequence: RRIRARPPRLPRPRPRPICIPRP
- shrunken log2 fold change: 0.227

Sequence: RRIRARPPRLPRPRPRPIFYPRP
- shrunken log2 fold change: -0.0773

Sequence: RRIRARPPRLPRPRPRPIGEPRP
- shrunken log2 fold change: -0.0613

Sequence: RRIRARPPRLPRPRPRPIHIPRP
- shrunken log2 fold change: -0.24

Sequence: RRIRARPPRLPRPRPRPIHKPRP
- shrunken log2 fold change: -0.0416

Sequence: RRIRARPPRLPRPRPRPIIIPRP
- shrunken log2 fold change: -0.235

Sequence: RRIRARPPRLPRPRPRPIKLPRP
- shrunken log2 fold change: -0.16

Sequence: RRIRARPPRLPRPRPRPILCPRP
- shrunken log2 fold change: 0.165

Sequence: RRIRARPPRLPRPRPRPIMDPRP
- shrunken log2 fold change: -0.0229

Sequence: RRIRARPPRLPRPRPRPIMHPRP
- shrunken log2 fold change: -0.171

Sequence: RRIRARPPRLPRPRPRPINWPRP
- shrunken log2 fold change: 0.139

Sequence: RRIRARPPRLPRPRPRPIPIPRP
- shrunken log2 fold change: 0.354

Sequence: RRIRARPPRLPRPRPRPIQAPRP
- shrunken log2 fold change: -0.0205

Sequence: RRIRARPPRLPRPRPRPIQLPRP
- shrunken log2 fold change: -0.0651

Sequence: RRIRARPPRLPRPRPRPISAPRP
- shrunken log2 fold change: 0.294

Sequence: RRIRARPPRLPRPRPRPISEPRP
- shrunken log2 fold change: 0.0696

Sequence: RRIRARPPRLPRPRPRPISTPRP
- shrunken log2 fold change: -0.295

Sequence: RRIRARPPRLPRPRPRPITKPRP
- shrunken log2 fold change: -0.0507

Sequence: RRIRARPPRLPRPRPRPIVWPRP
- shrunken log2 fold change: 0.393

Sequence: RRIRARPPRLPRPRPRPIWGPRP
- shrunken log2 fold change: 0.302

Sequence: RRIRARPPRLPRPRPRPIYMPRP
- shrunken log2 fold change: -0.11

Sequence: RRIRARPPRLPRPRPRPIYYPRP
- shrunken log2 fold change: -0.182

Sequence: RRIRARPPRLPRPRPRPKAIPRP
- shrunken log2 fold change: 0.496

Sequence: RRIRARPPRLPRPRPRPKASPRP
- shrunken log2 fold change: 0.256

Sequence: RRIRARPPRLPRPRPRPKEIPRP
- shrunken log2 fold change: 0.711

Sequence: RRIRARPPRLPRPRPRPKEVPRP
- shrunken log2 fold change: -0.0076

Sequence: RRIRARPPRLPRPRPRPKGIPRP
- shrunken log2 fold change: -0.0515

Sequence: RRIRARPPRLPRPRPRPKGKPRP
- shrunken log2 fold change: 1.12

Sequence: RRIRARPPRLPRPRPRPKHAPRP
- shrunken log2 fold change: 0.757

Sequence: RRIRARPPRLPRPRPRPKIIPRP
- shrunken log2 fold change: -0.287

Sequence: RRIRARPPRLPRPRPRPKLTPRP
- shrunken log2 fold change: 0.167

Sequence: RRIRARPPRLPRPRPRPKQVPRP
- shrunken log2 fold change: 0.0289

Sequence: RRIRARPPRLPRPRPRPKRKPRP
- shrunken log2 fold change: 0.654

Sequence: RRIRARPPRLPRPRPRPKRTPRP
- shrunken log2 fold change: 0.553

Sequence: RRIRARPPRLPRPRPRPKSSPRP
- shrunken log2 fold change: 0.188

Sequence: RRIRARPPRLPRPRPRPKTIPRP
- shrunken log2 fold change: 0.038

Sequence: RRIRARPPRLPRPRPRPKTPPRP
- shrunken log2 fold change: 0.903

Sequence: RRIRARPPRLPRPRPRPKVAPRP
- shrunken log2 fold change: 0.698

Sequence: RRIRARPPRLPRPRPRPKWMPRP
- shrunken log2 fold change: 0.191

Sequence: RRIRARPPRLPRPRPRPKWRPRP
- shrunken log2 fold change: 0.176

Sequence: RRIRARPPRLPRPRPRPKYCPRP
- shrunken log2 fold change: -0.464

Sequence: RRIRARPPRLPRPRPRPLAYPRP
- shrunken log2 fold change: 0.293

Sequence: RRIRARPPRLPRPRPRPLCDPRP
- shrunken log2 fold change: 2.32

Sequence: RRIRARPPRLPRPRPRPLCPPRP
- shrunken log2 fold change: 0.0472

Sequence: RRIRARPPRLPRPRPRPLDMPRP
- shrunken log2 fold change: -0.00812

Sequence: RRIRARPPRLPRPRPRPLFLPRP
- shrunken log2 fold change: 0.0297

Sequence: RRIRARPPRLPRPRPRPLFNPRP
- shrunken log2 fold change: -0.064

Sequence: RRIRARPPRLPRPRPRPLGDPRP
- shrunken log2 fold change: 0.281

Sequence: RRIRARPPRLPRPRPRPLIAPRP
- shrunken log2 fold change: 0.504

Sequence: RRIRARPPRLPRPRPRPLIMPRP
- shrunken log2 fold change: -0.144

Sequence: RRIRARPPRLPRPRPRPLINPRP
- shrunken log2 fold change: 0.0648

Sequence: RRIRARPPRLPRPRPRPLKQPRP
- shrunken log2 fold change: 0.469

Sequence: RRIRARPPRLPRPRPRPLKVPRP
- shrunken log2 fold change: -0.0599

Sequence: RRIRARPPRLPRPRPRPLLKPRP
- shrunken log2 fold change: 0.0989

Sequence: RRIRARPPRLPRPRPRPLMKPRP
- shrunken log2 fold change: 0.106

Sequence: RRIRARPPRLPRPRPRPLMPPRP
- shrunken log2 fold change: 0.197

Sequence: RRIRARPPRLPRPRPRPLNQPRP
- shrunken log2 fold change: -0.0348

Sequence: RRIRARPPRLPRPRPRPLPVPRP
- shrunken log2 fold change: 0.174

Sequence: RRIRARPPRLPRPRPRPLQEPRP
- shrunken log2 fold change: 0.604

Sequence: RRIRARPPRLPRPRPRPLQMPRP
- shrunken log2 fold change: 0.629

Sequence: RRIRARPPRLPRPRPRPLQPPRP
- shrunken log2 fold change: 0.583

Sequence: RRIRARPPRLPRPRPRPLRHPRP
- shrunken log2 fold change: 0.619

Sequence: RRIRARPPRLPRPRPRPLSQPRP
- shrunken log2 fold change: 0.263

Sequence: RRIRARPPRLPRPRPRPLSRPRP
- shrunken log2 fold change: 0.203

Sequence: RRIRARPPRLPRPRPRPLTEPRP
- shrunken log2 fold change: 0.608

Sequence: RRIRARPPRLPRPRPRPLTTPRP
- shrunken log2 fold change: 0.463

Sequence: RRIRARPPRLPRPRPRPLWPPRP
- shrunken log2 fold change: 0.646

Sequence: RRIRARPPRLPRPRPRPMALPRP
- shrunken log2 fold change: 0.272

Sequence: RRIRARPPRLPRPRPRPMAVPRP
- shrunken log2 fold change: 0.209

Sequence: RRIRARPPRLPRPRPRPMCTPRP
- shrunken log2 fold change: -0.0696

Sequence: RRIRARPPRLPRPRPRPMGSPRP
- shrunken log2 fold change: 0.0355

Sequence: RRIRARPPRLPRPRPRPMHPPRP
- shrunken log2 fold change: 0.362

Sequence: RRIRARPPRLPRPRPRPMITPRP
- shrunken log2 fold change: 0.312

Sequence: RRIRARPPRLPRPRPRPMMWPRP
- shrunken log2 fold change: 0.617

Sequence: RRIRARPPRLPRPRPRPMPTPRP
- shrunken log2 fold change: 0.866

Sequence: RRIRARPPRLPRPRPRPMQQPRP
- shrunken log2 fold change: 0.281

Sequence: RRIRARPPRLPRPRPRPMREPRP
- shrunken log2 fold change: 0.844

Sequence: RRIRARPPRLPRPRPRPMSNPRP
- shrunken log2 fold change: -0.433

Sequence: RRIRARPPRLPRPRPRPMSQPRP
- shrunken log2 fold change: 0.235

Sequence: RRIRARPPRLPRPRPRPMSTPRP
- shrunken log2 fold change: -0.0262

Sequence: RRIRARPPRLPRPRPRPMSWPRP
- shrunken log2 fold change: 0.399

Sequence: RRIRARPPRLPRPRPRPMTDPRP
- shrunken log2 fold change: -0.414

Sequence: RRIRARPPRLPRPRPRPMVAPRP
- shrunken log2 fold change: 0.676

Sequence: RRIRARPPRLPRPRPRPMVYPRP
- shrunken log2 fold change: -0.0537

Sequence: RRIRARPPRLPRPRPRPMWHPRP
- shrunken log2 fold change: 0.131

Sequence: RRIRARPPRLPRPRPRPMWVPRP
- shrunken log2 fold change: -0.0205

Sequence: RRIRARPPRLPRPRPRPMYPPRP
- shrunken log2 fold change: -0.79

Sequence: RRIRARPPRLPRPRPRPNAVPRP
- shrunken log2 fold change: 0.0101

Sequence: RRIRARPPRLPRPRPRPNDVPRP
- shrunken log2 fold change: 0.128

Sequence: RRIRARPPRLPRPRPRPNFLPRP
- shrunken log2 fold change: 0.0215

Sequence: RRIRARPPRLPRPRPRPNGDPRP
- shrunken log2 fold change: 0.147

Sequence: RRIRARPPRLPRPRPRPNGNPRP
- shrunken log2 fold change: -0.191

Sequence: RRIRARPPRLPRPRPRPNGQPRP
- shrunken log2 fold change: 0.208

Sequence: RRIRARPPRLPRPRPRPNKDPRP
- shrunken log2 fold change: -0.294

Sequence: RRIRARPPRLPRPRPRPNLFPRP
- shrunken log2 fold change: -0.0329

Sequence: RRIRARPPRLPRPRPRPNMYPRP
- shrunken log2 fold change: -0.38

Sequence: RRIRARPPRLPRPRPRPNNPPRP
- shrunken log2 fold change: 0.0346

Sequence: RRIRARPPRLPRPRPRPNPTPRP
- shrunken log2 fold change: 1.11

Sequence: RRIRARPPRLPRPRPRPNQWPRP
- shrunken log2 fold change: 0.724

Sequence: RRIRARPPRLPRPRPRPNRAPRP
- shrunken log2 fold change: -0.0385

Sequence: RRIRARPPRLPRPRPRPNSPPRP
- shrunken log2 fold change: -0.138

Sequence: RRIRARPPRLPRPRPRPNTLPRP
- shrunken log2 fold change: -0.202

Sequence: RRIRARPPRLPRPRPRPNTRPRP
- shrunken log2 fold change: 0.12

Sequence: RRIRARPPRLPRPRPRPNVWPRP
- shrunken log2 fold change: 0.537

Sequence: RRIRARPPRLPRPRPRPNWTPRP
- shrunken log2 fold change: 0.0524

Sequence: RRIRARPPRLPRPRPRPNYMPRP
- shrunken log2 fold change: -0.2

Sequence: RRIRARPPRLPRPRPRPNYVPRP
- shrunken log2 fold change: -0.35

Sequence: RRIRARPPRLPRPRPRPPAMPRP
- shrunken log2 fold change: 0.394

Sequence: RRIRARPPRLPRPRPRPPCRPRP
- shrunken log2 fold change: 0.517

Sequence: RRIRARPPRLPRPRPRPPCYPRP
- shrunken log2 fold change: 0.146

Sequence: RRIRARPPRLPRPRPRPPEHPRP
- shrunken log2 fold change: 0.606

Sequence: RRIRARPPRLPRPRPRPPELPRP
- shrunken log2 fold change: 0.947

Sequence: RRIRARPPRLPRPRPRPPFGPRP
- shrunken log2 fold change: 0.436

Sequence: RRIRARPPRLPRPRPRPPFIPRP
- shrunken log2 fold change: -0.103

Sequence: RRIRARPPRLPRPRPRPPFMPRP
- shrunken log2 fold change: 0.376

Sequence: RRIRARPPRLPRPRPRPPGFPRP
- shrunken log2 fold change: 0.59

Sequence: RRIRARPPRLPRPRPRPPHVPRP
- shrunken log2 fold change: 0.805

Sequence: RRIRARPPRLPRPRPRPPIGPRP
- shrunken log2 fold change: 0.287

Sequence: RRIRARPPRLPRPRPRPPLQPRP
- shrunken log2 fold change: 0.557

Sequence: RRIRARPPRLPRPRPRPPLSPRP
- shrunken log2 fold change: 0.549

Sequence: RRIRARPPRLPRPRPRPPPIPRP
- shrunken log2 fold change: 1

Sequence: RRIRARPPRLPRPRPRPPQLPRP
- shrunken log2 fold change: 0.753

Sequence: RRIRARPPRLPRPRPRPPQTPRP
- shrunken log2 fold change: 0.9

Sequence: RRIRARPPRLPRPRPRPPSMPRP
- shrunken log2 fold change: 0.425

Sequence: RRIRARPPRLPRPRPRPPSNPRP
- shrunken log2 fold change: 0.195

Sequence: RRIRARPPRLPRPRPRPPVMPRP
- shrunken log2 fold change: 0.395

Sequence: RRIRARPPRLPRPRPRPPYMPRP
- shrunken log2 fold change: -0.467

Sequence: RRIRARPPRLPRPRPRPPYRPRP
- shrunken log2 fold change: -0.0935

Sequence: RRIRARPPRLPRPRPRPPYTPRP
- shrunken log2 fold change: 0.16

Sequence: RRIRARPPRLPRPRPRPQCIPRP
- shrunken log2 fold change: -0.125

Sequence: RRIRARPPRLPRPRPRPQDCPRP
- shrunken log2 fold change: 0.0638

Sequence: RRIRARPPRLPRPRPRPQDDPRP
- shrunken log2 fold change: 0.274

Sequence: RRIRARPPRLPRPRPRPQDFPRP
- shrunken log2 fold change: -0.0122

Sequence: RRIRARPPRLPRPRPRPQEIPRP
- shrunken log2 fold change: 0.107

Sequence: RRIRARPPRLPRPRPRPQELPRP
- shrunken log2 fold change: 0.0199

Sequence: RRIRARPPRLPRPRPRPQFKPRP
- shrunken log2 fold change: -0.0331

Sequence: RRIRARPPRLPRPRPRPQIPPRP
- shrunken log2 fold change: -0.346

Sequence: RRIRARPPRLPRPRPRPQLCPRP
- shrunken log2 fold change: 0.249

Sequence: RRIRARPPRLPRPRPRPQNPPRP
- shrunken log2 fold change: 0.0626

Sequence: RRIRARPPRLPRPRPRPQQYPRP
- shrunken log2 fold change: -0.203

Sequence: RRIRARPPRLPRPRPRPQRGPRP
- shrunken log2 fold change: 0.468

Sequence: RRIRARPPRLPRPRPRPQRVPRP
- shrunken log2 fold change: -0.188

Sequence: RRIRARPPRLPRPRPRPQSKPRP
- shrunken log2 fold change: 0.0474

Sequence: RRIRARPPRLPRPRPRPQTPPRP
- shrunken log2 fold change: 0.456

Sequence: RRIRARPPRLPRPRPRPQVVPRP
- shrunken log2 fold change: -0.0726

Sequence: RRIRARPPRLPRPRPRPQWEPRP
- shrunken log2 fold change: 0.196

Sequence: RRIRARPPRLPRPRPRPQWIPRP
- shrunken log2 fold change: -0.0374

Sequence: RRIRARPPRLPRPRPRPQYDPRP
- shrunken log2 fold change: -0.018
